From the Human Domainome abundance scans (Beltran et al. 2025)
± gives the uncertainty stated by the source.

B1: Membrane-associated guanylate kinase, WW and PDZ domain-containing protein 1, residues 352 to 401; numbered along this chain, Q96QZ7 (parent)
chain: TEELDSELELPAGWEKIEDPVYGIYYVDHINRKTQYENPVLEAKRKKQLE

Variants of: B1
Assay: abundance fitness (aPCA) (normalised: wild type 0, dead -1); higher = more abundant; growth selection in yeast, the domain comes from the species named
Details: Homo sapiens

Variant	abundance fitness
P11C	-0.249 ± 0.095
P11V	-0.671 ± 0.083
P11E	-0.377 ± 0.088
G13T	-0.898 ± 0.15
G13W	-0.428 ± 0.06
G13P	-0.41 ± 0.047
G13D	-0.525 ± 0.12
D19N	-0.611 ± 0.16
D19W	-1.03 ± 0.085
D19S	-0.163 ± 0.063
D19Y	-0.861 ± 0.078
D19G	-0.596 ± 0.044
D19C	-0.015 ± 0.044
D19Q	-0.66 ± 0.051
V40N	-0.038 ± 0.1
V40Y	-0.237 ± 0.086
V40E	-0.25 ± 0.073
V40W	-0.177 ± 0.053
I17Q	-0.809 ± 0.16
I17T	-0.266 ± 0.058
I17G	-0.602 ± 0.058
I17S	-0.484 ± 0.061
I24A	-0.323 ± 0.07
I24T	0.039 ± 0.047
I24D	-0.387 ± 0.16
I24F	0.015 ± 0.45
R45T	0.048 ± 0.075

Variant	abundance fitness
R45E	0.073 ± 0.047
R45L	-0.302 ± 0.066
R45G	-0.113 ± 0.039
R45W	-0.352 ± 0.048
R45H	-0.564 ± 0.19
E9S	-0.103 ± 0.045
E9M	-0.079 ± 0.073
E9C	-0.149 ± 0.072
E9D	-0.017 ± 0.1
E9L	-0.223 ± 0.058
E9W	-0.497 ± 0.089
I30P	-0.208 ± 0.076
I30D	-0.459 ± 0.083
I30C	-0.322 ± 0.077
I30S	-0.279 ± 0.063
D5I	0 ± 0.057
D5H	-0.192 ± 0.082
D5T	0.059 ± 0.053
T1V	-0.098 ± 0.089
T1E	0.069 ± 0.11
T1A	-0.474 ± 0.22
T1M	-0.074 ± 0.16
T1I	-0.379 ± 0.27
T1R	0.104 ± 0.18
S6F	-0.231 ± 0.047
S6G	-0.041 ± 0.06
S6W	-0.44 ± 0.1

Variant	abundance fitness
S6T	0.142 ± 0.091
S6N	-0.171 ± 0.13
S6E	-0.183 ± 0.085
S6Q	-0.046 ± 0.053
S6R	0.103 ± 0.054
S6P	-0.358 ± 0.1
S6V	0.062 ± 0.054
E42R	-0.565 ± 0.053
E42Q	-0.222 ± 0.081
E42W	-0.26 ± 0.051
E42C	-0.297 ± 0.046
E42P	-0.361 ± 0.05
E42G	-0.137 ± 0.038
W14P	-0.598 ± 0.046
W14A	-0.686 ± 0.092
W14Q	-0.631 ± 0.11
W14D	-0.539 ± 0.12
W14K	-0.45 ± 0.12
W14V	-0.5 ± 0.044
W14G	-0.475 ± 0.048
W14T	-0.254 ± 0.081
W14Y	-0.775 ± 0.24
L41M	0.03 ± 0.074
L41N	-0.137 ± 0.12
L41H	0.032 ± 0.044
L41E	-0.053 ± 0.071
